± gives the uncertainty stated by the source.
Experiment: self-splicing fitness, log relative to wild type (ln ratio); higher = more splicing; Tetrahymena group I intron in knt gene, E. coli kanamycin selection, DiMSum; sequences stand for … in CUCUCU…GGAGGGAAAAGUUAUCAGGCAUGCACCUGGUAGCUAGUCUUUAAACCAAUAGAUUGCAUCGGUUUAAAAGGCAAGACCGUCAAAUUGCGGGAAAGGGGUCAACAGCCGUUCAGUACCAAGUCUCAGGGGAAACUUUGAGAUGGCCUUGCAAAGGGUAUGGUAAUAAGCUGACGGACAUGGUCCUAACCACGCAGCCAAGUCCUAAGUCAACAGAUCUUCUGUUGAUAUGGAUGCAGUUCACAGACUAAAUGUCGGUCGGGGAAGAUGUAUUCUUCUCAUAAGAUAUAGUCGGACCUCUCCUUAAUGGGAGCUAGCGGAUGAAGUGAUGCAACACUGGAGCCGCUGGGAACUAAUUUGUAUGCGAAAGUAUAUUGAUUAGUUUUGGAGUACUCGUGGUCG
Procedure, shortened: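 The eight P1ex-region nucleotides of an intron in the knt kanamycin-resistance gene on pET-22b(+) were all randomised and the library put into E. coli BL21(DE3). Six replicate transformations were grown overnight at 37°C or 30°C on LB agar with or without 25 μg/mL kanamycin, together with 100 μg/mL carbenicillin, 50 μM IPTG and 0.2% rhamnose. Colonies were pooled and amplicon-sequenced on an Illumina HiSeq 2500. Fitness from DiMSum is the error-weighted combination of wild-type-normalised replicate fold changes, kanamycin over none.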

Sequence | self-splicing fitness (ln) (30 °C) | self-splicing fitness (ln) (37 °C)
AGCCAGCAAUAUUACGGGGG | -3.73 ± 0.24 | -1.99 ± 0.21
AGCCAGCAAUAUUACGGGGU | -4.08 ± 0.19 | -2.22 ± 0.15
AGCCAGCAAUAUUACGGUCC | -1.12 ± 0.081 | -0.461 ± 0.12
AGCCAGCAAUAUUACGUAAG | -2.38 ± 0.057 | -1.34 ± 0.078
AGCCAGCAAUAUUACGUAGU | -2.72 ± 0.12 | -1.83 ± 0.14
AGCCAGCAAUAUUACGUAUG | -2.08 ± 0.089 | -3.2 ± 0.19
AGCCAGCAAUAUUACGUCGC | -3.44 ± 0.35 | -2.74 ± 0.21
AGCCAGCAAUAUUACGUGGU | -3.52 ± 0.14 | -3.58 ± 0.2
AGCCAGCAAUAUUACGUUUC | -3.43 ± 0.18 | –
AGCGAGCAAUAUUACGAACU | -2.3 ± 0.42 | -1.17 ± 0.29
AGCGAGCAAUAUUACGAAGU | -3.59 ± 0.29 | -1.57 ± 0.21
AGCGAGCAAUAUUACGACAU | -1.32 ± 0.015 | -0.624 ± 0.034
AGCGAGCAAUAUUACGAGCU | -3.17 ± 0.24 | -2.49 ± 0.22
AGCGAGCAAUAUUACGAUUA | -2.78 ± 0.23 | -2.15 ± 0.23
AGCGAGCAAUAUUACGCACA | -2.76 ± 0.29 | -1.06 ± 0.18
AGCGAGCAAUAUUACGCAGG | -2.43 ± 0.24 | –
AGCGAGCAAUAUUACGCAUA | – | -1.77 ± 0.24
AGCGAGCAAUAUUACGCAUG | -3.33 ± 0.22 | -1.48 ± 0.18
AGCGAGCAAUAUUACGCAUU | -2.63 ± 0.24 | -2.04 ± 0.2
AGCGAGCAAUAUUACGCUUU | – | -2.89 ± 0.27
AGCGAGCAAUAUUACGGAUU | – | -1.96 ± 0.35
AGCGAGCAAUAUUACGGCUC | -3.06 ± 0.34 | -2.06 ± 0.45
AGCGAGCAAUAUUACGGGCU | – | -1.59 ± 0.24
AGCGAGCAAUAUUACGGUAC | -3.58 ± 0.36 | –
AGCGAGCAAUAUUACGGUGA | -3.59 ± 0.21 | -2.77 ± 0.15

Sequence | self-splicing fitness (ln) (30 °C) | self-splicing fitness (ln) (37 °C)
AGCGAGCAAUAUUACGGUUU | -2.1 ± 0.18 | -0.574 ± 0.15
AGCGAGCAAUAUUACGUGCU | -4.05 ± 0.29 | -1.41 ± 0.23
AGCGAGCAAUAUUACGUUGG | -2.04 ± 0.12 | -3.5 ± 0.46
AGCUAGCAAUAUUACGAAAA | -3.04 ± 0.38 | -1.66 ± 0.23
AGCUAGCAAUAUUACGAAUU | -1.74 ± 0.11 | -1.14 ± 0.13
AGCUAGCAAUAUUACGACCG | -1.53 ± 0.1 | -1.06 ± 0.13
AGCUAGCAAUAUUACGAGAC | -2.16 ± 0.24 | -2.14 ± 0.31
AGCUAGCAAUAUUACGAUGA | -2.51 ± 0.21 | -2.54 ± 0.15
AGCUAGCAAUAUUACGCCGU | -1.23 ± 0.13 | -1.2 ± 0.16
AGCUAGCAAUAUUACGCUCU | -2.24 ± 0.18 | -1.57 ± 0.24
AGCUAGCAAUAUUACGGCGA | -0.581 ± 0.081 | 0.0269 ± 0.12
AGCUAGCAAUAUUACGGGAC | -3.37 ± 0.23 | -1.84 ± 0.24
AGCUAGCAAUAUUACGGUUU | -2.66 ± 0.14 | -1.96 ± 0.14
AGCUAGCAAUAUUACGUAUG | -2.52 ± 0.15 | -0.829 ± 0.12
AGCUAGCAAUAUUACGUAUU | -3.8 ± 0.23 | -1.35 ± 0.15
AGCUAGCAAUAUUACGUCCC | -1.33 ± 0.21 | 0.355 ± 0.22
AGCUAGCAAUAUUACGUGUA | -3.86 ± 0.18 | -1.48 ± 0.12
AGCUAGCAAUAUUACGUUCC | -0.609 ± 0.11 | -1.76 ± 0.17
AGCUAGCAAUAUUACGUUGC | -3.91 ± 0.25 | -3.13 ± 0.28
AGGAAGCAAUAUUACGAAUG | -4.53 ± 0.46 | -2.8 ± 0.28
AGGAAGCAAUAUUACGACCA | -0.504 ± 0.06 | -0.317 ± 0.096
AGGAAGCAAUAUUACGACGA | -0.678 ± 0.092 | -0.0243 ± 0.13
AGGAAGCAAUAUUACGAGCG | -1.96 ± 0.24 | -1.08 ± 0.22
AGGAAGCAAUAUUACGAUUU | -0.378 ± 0.078 | 0.0421 ± 0.11
AGGAAGCAAUAUUACGCAUA | -2.39 ± 0.18 | -1.15 ± 0.16

From the supplement of paper PMC7877785
